Results published in publication PMC13185593.

Tested on: HuR
Experiment: SPR
Settings: SPR: 25 mM Tris pH 7.5, 100 mM KCl, 7 mM b-mercaptoethanol, 10% glycerol, 25 C, UV crosslinking: 5 mM HEPES pH 7.6, 25 mM KCl, 2 mM MgCl2, 3.8% glycerol

SARS-CoV-2 5'-UTR WT, biotin (SPR)
Kd: 32.5 nM
